Measurements taken from patent US20100298539A1.
Values joined by “and” are separate entries in the source; they are usually repeats but may differ in a detail not shown here. Equal entries are not always repeated.

Each substance was assayed against human C5a receptor (C5aR) (human) (UniProt P21730) (assay: not given).
Sequence of human C5a receptor (C5aR) (human) (P21730 whole entry): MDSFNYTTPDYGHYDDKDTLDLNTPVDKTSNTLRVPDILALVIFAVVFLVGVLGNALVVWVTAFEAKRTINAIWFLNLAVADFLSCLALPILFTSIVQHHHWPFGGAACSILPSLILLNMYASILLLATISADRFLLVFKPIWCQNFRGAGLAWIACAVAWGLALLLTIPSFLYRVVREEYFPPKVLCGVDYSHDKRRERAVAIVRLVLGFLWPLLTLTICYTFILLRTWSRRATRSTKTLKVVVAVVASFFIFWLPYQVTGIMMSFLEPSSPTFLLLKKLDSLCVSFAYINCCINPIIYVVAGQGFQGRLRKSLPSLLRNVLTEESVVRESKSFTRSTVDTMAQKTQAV

| Substance | IC50 (read off the curve) [ng/mL] |
| --- | --- |
| Chemotaxis Inhibitory Protein of Staphylococcus aureus (CHIPS), wildtype, amino acids 1-121 (from UniProt A6QIG7 29-149) | 0.07 |

Each substance was assayed against CD88-N-term peptide ABCF-1 (biotinylated C5aR peptide) (UniProt P21730) (assay: C5aR peptide ELISA).
Sequence of CD88-N-term peptide ABCF-1 (biotinylated C5aR peptide) (P21730 7-28 limits assumed): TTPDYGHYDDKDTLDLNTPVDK

| Substance | specific activity (%) |
| --- | --- |
| CHIPS K69A control (lysate), A6QIG7 29-140 | 116 |
| CHIPS clone 1F8 (Y48H, D83G, L90P), A6QIG7 29-140 | 93 |
| CHIPS clone 2C9 (K54R, K69R, K100R, K105R), A6QIG7 29-140 | 115 |
| CHIPS clone 2D5 (K40E, K69A, N111K, G112V), A6QIG7 29-138 | 132 |
| CHIPS clone 2H5 (K69A, K100R, K101R), A6QIG7 29-140 | 113 |
| CHIPS clone 3C4 (K69A, G112V), A6QIG7 29-139 | 94 |
| CHIPS clone 3H1 (G112V) (from UniProt A6QIG7 29-139) (other; other documents disagree on this pair) | 109 |
| CHIPS clone 4E5 (K69T), A6QIG7 29-140 | 76 |
| CHIPS clone 5H1 (K50N), A6QIG7 29-140 | 88 |
| CHIPS clone 6E1 (S104Y), A6QIG7 29-140 | 76 |
| CHIPS clone 7B3 (N111I) (from UniProt A6QIG7 29-140) (other; other documents disagree on this pair) | 140 |
| CHIPS clone 7E4 (K40N, K92R), A6QIG7 29-140 | 65 |
| CHIPSwt control (lysate) (from UniProt A6QIG7 29-149) (other; other documents disagree on this pair) | 106 |

The substances below were run against CD88-N-term peptide ABCF-1 (biotinylated C5aR peptide) (UniProt P21730) (assay: C5aR peptide ELISA, lysate).

| Substance | pept-ELISA bindn (%) | Abs 492 nm | Pep. bind. | Pep. bind. Log (ng/ml) | Spec. activity pep/expr (%) |
| --- | --- | --- | --- | --- | --- |
| CHIPS E67A (from UniProt A6QIG7 29-149) (other; other documents disagree on this pair) | 52% and 39% |  |  |  |  |
| CHIPS G33A (from UniProt A6QIG7 29-149) (other; other documents disagree on this pair) | 13% |  |  |  |  |
| CHIPS G52A (from UniProt A6QIG7 29-149) (other; other documents disagree on this pair) | 19% and 20% |  |  |  |  |
| CHIPS K69A control (lysate), A6QIG7 29-140 | 15% | 1.41 and 1.39 | 126 ng/mL and 120 ng/mL | 2.1 log ng/ml and 2.08 log ng/ml | 116% and 112% |
| CHIPS L34A (from UniProt A6QIG7 29-149) (other; other documents disagree on this pair) | 13% and 12% |  |  |  |  |
| CHIPS L76A (from UniProt A6QIG7 29-149) (other; other documents disagree on this pair) | 1% and 2% |  |  |  |  |
| CHIPS L90A (from UniProt A6QIG7 29-149) (other; other documents disagree on this pair) | 25% and 24% |  |  |  |  |
| CHIPS N31A (from UniProt A6QIG7 29-149) (other; other documents disagree on this pair) | 16% and 23% |  |  |  |  |
| CHIPS N55A (from UniProt A6QIG7 29-149) (other; other documents disagree on this pair) | 8% and 9% |  |  |  |  |
| CHIPS P35A (from UniProt A6QIG7 29-149) (other; other documents disagree on this pair) | 54% and 68% |  |  |  |  |
| CHIPS P79A (from UniProt A6QIG7 29-149) (other; other documents disagree on this pair) | 28% and 25% |  |  |  |  |
| CHIPS Q58A (from UniProt A6QIG7 29-149) (other; other documents disagree on this pair) | 2% and 3% |  |  |  |  |
| CHIPS S32A (from UniProt A6QIG7 29-149) (other; other documents disagree on this pair) | 15% |  |  |  |  |
| CHIPS S56A (from UniProt A6QIG7 29-149) (other; other documents disagree on this pair) | 18% and 16% |  |  |  |  |
| CHIPS S107A (from UniProt A6QIG7 29-149) (other; other documents disagree on this pair) | 11% |  |  |  |  |
| CHIPS T53A (from UniProt A6QIG7 29-149) (other; other documents disagree on this pair) | 7% |  |  |  |  |
| CHIPS Y48A (from UniProt A6QIG7 29-149) (other; other documents disagree on this pair) | 86% and 70% |  |  |  |  |
| CHIPS Y108A (from UniProt A6QIG7 29-149) (other; other documents disagree on this pair) | 1% |  |  |  |  |
| CHIPSwt control (lysate) (from UniProt A6QIG7 29-149) (other; other documents disagree on this pair) | 21% | 1.48 and 1.41 | 155 ng/mL and 126 ng/mL | 2.19 log ng/ml and 2.1 log ng/ml | 119% and 106% |

The substances below were run against human C5a receptor (C5aR) (human) (UniProt P21730) (assay: flow cytometry on U937/C5aR cells, 2H7 detection).

| Substance | Binding U937cells C5aR (0.3 µg/ml) % of wt 1-112 [%] |
| --- | --- |
| Chemotaxis Inhibitory Protein of Staphylococcus aureus (CHIPS), wildtype, amino acids 1-121 (from UniProt A6QIG7 29-149) | 28 |

What follows are substances tested against human C5a receptor (C5aR) (human) (UniProt P21730) (assay: dual fMLP-F/α-C5aR-PE flow cytometry on neutrophils).

| Substance | Dual bind PMN (%) |
| --- | --- |
| Chemotaxis Inhibitory Protein of Staphylococcus aureus (CHIPS), wildtype, amino acids 1-121 (from UniProt A6QIG7 29-149) | 112 |
